# Measurements from patent US20040005671A1 (ZENYTH OPERATIONS, published 2004).
# T1: VEGF-B186 (recombinant mature human, N-terminal His6-tagged, refolded homodimer from E. coli) (human, UniProt P49765 22-207, Refolded homodimer; one protomer given.)
# T1 construct: not shown: N-terminal His6 tag coded by the pET15b vector
# T1 sequence: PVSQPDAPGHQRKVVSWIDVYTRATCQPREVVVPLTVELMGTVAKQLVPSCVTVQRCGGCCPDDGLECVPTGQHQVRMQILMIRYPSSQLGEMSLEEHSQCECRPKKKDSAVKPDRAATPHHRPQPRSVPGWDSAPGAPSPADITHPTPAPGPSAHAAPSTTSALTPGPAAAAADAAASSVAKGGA
# B1: VEGF-B10-108 (truncated mature human VEGF-B, N-terminal His6-tagged, refolded homodimer from E. coli) (ligand, UniProt P49765 31-129, looked up)
# chain: HQRKVVSWIDVYTRATCQPREVVVPLTVELMGTVAKQLVPSCVTVQRCGGCCPDDGLECVPTGQHQVRMQILMIRYPSSQLGEMSLEEHSQCECRPKKK
# notes: not shown: additional 16 amino acids at the N-terminus which incorporate a His6 tag and a Genenase I cleavage site (pQE30)
# B2: VEGF-R1D2 (Ig domain 2 of human VEGF-R1, residues 129-229, from E. coli) (receptor, UniProt P17948 129-229, looked up)
# chain: SDTGRPFVEMYSEIPEIIHMTEGRELVIPCRVTSPNITVTLKKFPLDTLIPDGKRIIWDSRKGFIISNATYKEIGLLTCEATVNGHLYKTNYLTHRQTNTI
# notes: range 129-229; Cloned into pQE30; also called Flt-1 domain 2
# What was measured:
# [1] = biological target: VEGF-R1-(hflt1-4)gp130 fusion: chimeric receptor of human VEGF-R1 Ig domains 1 to 4 with the transmembrane and cytoplasmic domains of gp130, on clone 2.1.19.25 cells (human); test: cell-based or functional assay
# VEGF-R1-(hflt1-4)gp130 fusion: chimeric receptor of human VEGF-R1 Ig domains 1 to 4 with the transmembrane and cytoplasmic domains of gp130, on clone 2.1.19.25 cells (human), sequence (chain, as listed by the source mutant limits assumed, form in doubt): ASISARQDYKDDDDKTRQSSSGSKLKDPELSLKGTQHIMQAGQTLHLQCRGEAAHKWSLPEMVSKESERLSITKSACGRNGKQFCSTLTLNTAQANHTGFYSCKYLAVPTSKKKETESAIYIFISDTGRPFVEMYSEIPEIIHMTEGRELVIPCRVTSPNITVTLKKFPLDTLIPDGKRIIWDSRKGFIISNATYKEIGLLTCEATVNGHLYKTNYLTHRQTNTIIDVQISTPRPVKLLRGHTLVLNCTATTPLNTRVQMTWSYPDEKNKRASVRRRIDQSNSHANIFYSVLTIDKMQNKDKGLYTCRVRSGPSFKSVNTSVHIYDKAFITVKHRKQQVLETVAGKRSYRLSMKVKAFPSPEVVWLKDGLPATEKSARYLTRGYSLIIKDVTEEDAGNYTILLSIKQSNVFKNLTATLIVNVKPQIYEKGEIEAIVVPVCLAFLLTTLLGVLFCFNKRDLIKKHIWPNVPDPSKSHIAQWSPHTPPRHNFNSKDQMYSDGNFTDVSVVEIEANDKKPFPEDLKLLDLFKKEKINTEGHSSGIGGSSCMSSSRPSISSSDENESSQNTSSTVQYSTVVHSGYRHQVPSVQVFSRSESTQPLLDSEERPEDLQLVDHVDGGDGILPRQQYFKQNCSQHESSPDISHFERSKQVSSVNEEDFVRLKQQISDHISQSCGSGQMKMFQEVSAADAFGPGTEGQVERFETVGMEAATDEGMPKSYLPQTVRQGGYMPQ
# [2] = biological target: VEGF-R1-(hflt1-4)gp130 fusion: chimeric receptor of human VEGF-R1 Ig domains 1 to 4 with the transmembrane and cytoplasmic domains of gp130, on clone 2.1.19.25 cells (human)
# [3] = biological target: VEGF-R1D2 (Ig domain 2 of human VEGF-R1, residues 129-229, from E. coli) (human) (UniProt P17948); test: SPR (Biacore), VEGF-B immobilised on a CM5 chip, VEGF-R1D2 in solution, Scatchard analysis at steady state
# [4] = biological target: B2; test: as above
# Description: (§1) For initial Biosensor analysis of the binding of the purified and refolded VEGF-B3 isoforms, surface plasmon resonance (Biosensor 2000; Biacore, Sweden) and recombinant VEGF-R1D2 are used. […] The three forms of VEGF-B were immobilized on separate channels of a CM5 sensor chip, while murine LIF was immobilized to a fourth channel to serve as a negative control. Interaction with VEGF-R1D2 was monitored on all channels simultaneously.
# (§2) Purified VEGF-R1D2 is diluted to varying concentrations in 0.1% w/v BSA, 20 mM HEPES, 0.15 M NaCl, 0.005% w/v Tween 20, 3.4 mM EDTA, pH 7.4. […] Scatchard analysis is used to determine binding kinetics at steady state equilibrium.
# [5] = biological target: T1, VEGF-B186 (recombinant mature human, …); test: as above
# Description: as §1, §2
molecule,measurement,setting,value
VEGF-A (ligand),"luciferase, signal to background ratio, clone 2.1.19.25 cells",[1],2.5 to 3
"VEGF-B167 (recombinant, N-terminal His6-tagged, refolded homodimer from E. coli) (from UniProt P49765 22-207) (ligand)","EC50 (read off the curve) (luciferase reporter, clone 2.1.19.25 cells; VEGF-B167 titrated in the presence of the control mAb at 50 µg/ml)",[2],0.3 µg/mL
same,"ED50, luciferase, 2.1.19.25 cell-based assay",[1],0.15 to 0.3 µg/mL
same,Kd,[3],1.5 nM
B1,Kd,[4],0.8 nM
B2,Kd,[5],2 nM
